{
  "source": "paper PMC2935283",
  "key": {"[1]": {"target": "Escherichia coli enolase (E. coli) (UniProt P0A6P9)", "sequence (P0A6P9 whole entry)": "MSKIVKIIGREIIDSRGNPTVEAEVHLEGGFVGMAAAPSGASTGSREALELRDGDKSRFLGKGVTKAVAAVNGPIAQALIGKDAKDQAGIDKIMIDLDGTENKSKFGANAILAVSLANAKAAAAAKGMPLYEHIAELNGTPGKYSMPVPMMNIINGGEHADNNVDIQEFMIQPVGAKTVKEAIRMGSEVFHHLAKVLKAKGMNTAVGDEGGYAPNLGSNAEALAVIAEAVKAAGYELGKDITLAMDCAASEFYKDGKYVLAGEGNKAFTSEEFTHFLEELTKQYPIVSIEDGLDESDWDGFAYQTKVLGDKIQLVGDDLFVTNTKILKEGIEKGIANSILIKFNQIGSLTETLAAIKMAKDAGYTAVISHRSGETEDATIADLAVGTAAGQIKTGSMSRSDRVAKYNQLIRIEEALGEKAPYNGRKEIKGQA", "assay": "crystal structure; enolase and microdomain mixed in a 1:1.5 molar ratio on ice for 20 min; sitting drop, 0.1 M HEPES pH 7.0, 1.6 M ammonium sulfate, 293 K; 1.9 A"}, "[2]": {"target": "Escherichia coli enolase (E. coli) (UniProt P0A6P9)", "assay": "native MS; enolase mixed with the microdomain in a 1:1.5 molar ratio, room temperature, 20 min; nanoflow ESI, tandem nondissociating QTOF-MS/MS"}},
  "data": [
    {"substance": "RNase E recognition microdomain (residues 823-850) (peptide)", "values": [
      {"measurement": "stoichiometry N (RNase E microdomain per enolase dimer)", "setting": "[1]", "value": 1},
      {"measurement": "stoichiometry N (RNase E microdomain per enolase dimer)", "setting": "[2]", "value": 1}
    ]}
  ]
}
